This is an account of results in patent US8003596B2, “P-selectin targeting ligand and compositions thereof” (Astellas Pharma Inc., priority 2003, dated 2011).

Where no end group is shown, it is not given here.

One assay deals with T1, human P-selectin/IgG-Fc (Homo sapiens, UniProt P16109).
T1 construct: purchased R&D Systems Europe Ltd., Abingdon, United Kingdom
Briefly: Competition assay: displacement of TM11-PO complex from immobilised human P-selectin/IgG-Fc. It counts as binding. Particulars: competition with TM11-PO; free peptide; read-out: IC50 (affinity for P-selectin). How it is done: (§1) TM11-PO, a tetrameric TM11/strepPO complex described by Molenaar et al. (Blood 100: 3570-3577 (2002)), was freshly prepared by incubating streptavidin-peroxidase (Amersham Life Science, Little Chalfont, United Kingdom) (strep-PO; 8.4 μl, 2.0 μM) and biotin-CDVEWVDVSSLEWDLPC (SEQ ID NO: 2; synthesized by Dr. Vander Zee, Department of Immunology, University of Utrecht, Utrecht, the Netherlands) (TM11-biotin; 1.5 μl 190 mM) for 2 hours at room temperature in assay buffer (20 mM HEPES, 150 mM NaCl, 1 mM CaCl2, pH 7.4). For competition studies, a 96 wells microtiter plate (high binding, flat bottom, Costar, Corning, U.S.A) was coated overnight at 4° C. with 10 μg/ml goat anti-human IgG (Sigma-Aldrich, Zwijndrecht, the Netherlands) in coating buffer (50 mM NaHCO3, pH 9.6). Subsequently, wells were washed with assay buffer and incubated for 1 hour at 37° C. with blocking buffer (3% BSA in assay buffer). After washing with assay buffer the wells were incubated for 2 hours at 37° C. with human P-selectin/IgG-Fc (R&D Systems Europe Ltd., Abingdon, United Kingdom) (0.3 μg/ml). Subsequently, wells were washed with assay buffer and incubated for 1 hour at 4° C. with the TM11-PO complex. The wells were washed six times with washing buffer (0.1% Tween 20 in assay buffer). […] The reaction was halted by addition of 2 M H2SO4 and the absorbance was measured at 450 nm.

Assay [1] deals with T2, human P-selectin/IgG-Fc (R&D Systems) (human), P16109.
T2 chain: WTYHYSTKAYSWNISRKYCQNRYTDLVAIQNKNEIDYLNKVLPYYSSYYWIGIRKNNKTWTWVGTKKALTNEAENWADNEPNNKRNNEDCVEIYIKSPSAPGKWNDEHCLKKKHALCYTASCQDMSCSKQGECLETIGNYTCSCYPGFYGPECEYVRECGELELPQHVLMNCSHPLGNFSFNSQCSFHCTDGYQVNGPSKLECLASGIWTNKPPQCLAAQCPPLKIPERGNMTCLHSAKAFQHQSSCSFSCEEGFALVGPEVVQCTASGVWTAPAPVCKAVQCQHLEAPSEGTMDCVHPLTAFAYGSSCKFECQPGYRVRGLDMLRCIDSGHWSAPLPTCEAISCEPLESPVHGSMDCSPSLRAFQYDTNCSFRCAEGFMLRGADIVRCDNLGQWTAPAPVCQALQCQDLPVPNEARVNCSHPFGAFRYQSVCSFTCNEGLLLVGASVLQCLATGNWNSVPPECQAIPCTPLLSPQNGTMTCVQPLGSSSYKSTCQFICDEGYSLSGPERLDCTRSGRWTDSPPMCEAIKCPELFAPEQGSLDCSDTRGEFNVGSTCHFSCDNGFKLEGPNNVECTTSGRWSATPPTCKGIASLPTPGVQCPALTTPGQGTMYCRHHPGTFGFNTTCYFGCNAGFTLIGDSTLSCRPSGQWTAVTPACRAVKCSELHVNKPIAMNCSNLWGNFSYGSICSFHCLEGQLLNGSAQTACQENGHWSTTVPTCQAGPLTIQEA
Briefly: competition ELISA against TM11-PO on captured human P-selectin/IgG-Fc.

Assay [2] concerns the target T3, human P-selectin/IgG-Fc (R&D Systems) (human, UniProt P16109 42-771).
T3 construct: It was captured on plates coated with goat anti-human IgG; not shown: IgG Fc; it was captured by goat anti-human IgG
T3 sequence (looked up): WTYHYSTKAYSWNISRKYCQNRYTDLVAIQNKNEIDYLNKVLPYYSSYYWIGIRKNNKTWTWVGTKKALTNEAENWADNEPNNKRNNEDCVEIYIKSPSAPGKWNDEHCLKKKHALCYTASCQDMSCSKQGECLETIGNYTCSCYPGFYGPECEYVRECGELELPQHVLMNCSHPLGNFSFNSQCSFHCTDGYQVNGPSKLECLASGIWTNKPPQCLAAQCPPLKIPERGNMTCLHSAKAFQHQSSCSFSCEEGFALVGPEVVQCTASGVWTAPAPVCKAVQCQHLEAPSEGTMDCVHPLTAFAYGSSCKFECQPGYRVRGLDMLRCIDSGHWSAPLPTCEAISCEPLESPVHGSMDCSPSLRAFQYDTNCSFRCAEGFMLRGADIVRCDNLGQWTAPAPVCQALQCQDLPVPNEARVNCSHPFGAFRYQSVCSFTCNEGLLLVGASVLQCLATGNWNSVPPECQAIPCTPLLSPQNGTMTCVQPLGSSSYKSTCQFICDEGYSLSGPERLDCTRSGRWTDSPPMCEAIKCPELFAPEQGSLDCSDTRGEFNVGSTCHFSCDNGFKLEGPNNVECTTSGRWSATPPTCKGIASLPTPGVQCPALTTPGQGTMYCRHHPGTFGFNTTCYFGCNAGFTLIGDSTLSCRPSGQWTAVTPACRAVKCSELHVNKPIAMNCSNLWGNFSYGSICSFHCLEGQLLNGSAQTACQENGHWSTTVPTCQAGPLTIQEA
The assay is described as above. How it is done:
as §1, with “The affinity of the liposomal drug delivery system prepared in example 2 was evaluated using a competition assay. TM11-PO,” for “TM11-PO,”, “biotin-[…]” for “biotin-CDVEWVDVSSLEWDLPC”, “CaCl_2,” for “CaCl2,”, “NaHCO_3,” for “NaHCO3,”, “complex.” for “complex. The wells were washed six times with washing buffer (0.1% Tween 20 in assay buffer).”, “H_2SO_4” for “H2SO4”

Assay [3] concerns the target T4, human P-selectin on CHO cells stably transfected with human P-selectin (CHO-P cells) (human, UniProt P16109 42-830).
T4 sequence (looked up): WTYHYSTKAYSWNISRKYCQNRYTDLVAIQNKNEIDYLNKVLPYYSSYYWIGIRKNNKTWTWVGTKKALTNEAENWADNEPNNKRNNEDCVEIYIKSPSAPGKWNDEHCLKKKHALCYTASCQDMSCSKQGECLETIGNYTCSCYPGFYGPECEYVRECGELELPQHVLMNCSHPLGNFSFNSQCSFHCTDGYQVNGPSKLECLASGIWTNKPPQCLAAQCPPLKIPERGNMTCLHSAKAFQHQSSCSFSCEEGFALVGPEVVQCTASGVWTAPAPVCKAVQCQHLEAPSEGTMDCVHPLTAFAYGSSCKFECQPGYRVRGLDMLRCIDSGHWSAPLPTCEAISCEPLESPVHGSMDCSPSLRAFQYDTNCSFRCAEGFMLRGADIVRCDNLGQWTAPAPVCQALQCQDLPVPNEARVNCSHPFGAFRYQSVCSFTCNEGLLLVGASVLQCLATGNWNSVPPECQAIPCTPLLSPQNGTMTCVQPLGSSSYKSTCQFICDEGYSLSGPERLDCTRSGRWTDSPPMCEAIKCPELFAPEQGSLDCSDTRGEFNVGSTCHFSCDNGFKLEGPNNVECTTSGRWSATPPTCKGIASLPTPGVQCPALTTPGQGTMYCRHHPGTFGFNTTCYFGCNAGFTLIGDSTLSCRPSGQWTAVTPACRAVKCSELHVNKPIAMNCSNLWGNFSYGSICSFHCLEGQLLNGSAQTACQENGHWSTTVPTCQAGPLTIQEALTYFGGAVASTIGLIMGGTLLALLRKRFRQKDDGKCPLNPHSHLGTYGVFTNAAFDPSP
Briefly: cell-based or functional assay.

T1 sequence (P16109 with tags, fused parts or gaps limits assumed): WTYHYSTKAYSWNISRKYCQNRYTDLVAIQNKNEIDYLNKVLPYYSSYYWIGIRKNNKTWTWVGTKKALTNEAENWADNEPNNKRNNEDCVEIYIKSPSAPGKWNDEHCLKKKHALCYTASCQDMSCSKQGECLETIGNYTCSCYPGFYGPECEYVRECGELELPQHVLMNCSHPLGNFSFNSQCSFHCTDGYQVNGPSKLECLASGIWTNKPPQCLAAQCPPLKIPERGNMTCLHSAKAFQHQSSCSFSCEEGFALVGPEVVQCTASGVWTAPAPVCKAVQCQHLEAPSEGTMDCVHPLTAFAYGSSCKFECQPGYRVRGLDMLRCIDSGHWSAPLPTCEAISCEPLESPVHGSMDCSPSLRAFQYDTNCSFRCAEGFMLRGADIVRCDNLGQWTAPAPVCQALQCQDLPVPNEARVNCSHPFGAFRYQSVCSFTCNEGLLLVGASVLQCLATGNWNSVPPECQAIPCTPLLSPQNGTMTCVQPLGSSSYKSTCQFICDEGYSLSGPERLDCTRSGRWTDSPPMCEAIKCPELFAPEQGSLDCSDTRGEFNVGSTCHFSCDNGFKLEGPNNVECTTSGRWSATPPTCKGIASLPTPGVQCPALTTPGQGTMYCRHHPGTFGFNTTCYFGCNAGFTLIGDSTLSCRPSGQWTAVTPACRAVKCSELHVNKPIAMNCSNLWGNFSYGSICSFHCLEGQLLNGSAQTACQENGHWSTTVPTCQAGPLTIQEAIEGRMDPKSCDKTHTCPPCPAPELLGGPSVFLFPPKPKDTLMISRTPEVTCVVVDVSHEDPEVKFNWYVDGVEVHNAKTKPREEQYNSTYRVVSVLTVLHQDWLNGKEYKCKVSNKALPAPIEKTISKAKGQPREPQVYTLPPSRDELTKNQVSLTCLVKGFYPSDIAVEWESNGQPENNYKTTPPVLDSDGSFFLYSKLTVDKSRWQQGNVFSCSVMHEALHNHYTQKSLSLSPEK

By IC50 is commonly meant the concentration needed to halve the response being measured. For “H-DVEWVDVSY-OH [Pstar, H2N-DVEWVDVSY-COOH]”, the IC50 at human P-selectin/IgG-Fc worked out at 7 µM.

For DVEWVDVSY (modifications not checked) [human P-selectin binding peptide H2N-…-COOH (Pstar)], the IC50 in assay [1] was determined as 7 µM.

B1: P100 liposomes: liposomes carrying 100 DSPE-PEG3400-(125I)-Pstar conjugates per liposome (other)
peptide: DVEWVDVSY
modifications: not fully specified; also: 125I label (ICl method)
notes: About 70 nm EYPC/cholesterol liposome; The peptide-PEG-lipid conjugate is anchored in its surface together with DSPE-PEG2000 (5 mole % in total); also called LP100
Take B1: in assay [2], the IC50 came to 0.00078 µM.

B2: P500 liposomes: liposomes carrying 500 DSPE-PEG3400-(125I)-Pstar conjugates per liposome (other)
peptide: DVEWVDVSY
modifications: not fully specified; also: 125I label (ICl method)
notes: About 70 nm EYPC/cholesterol liposome; The peptide-PEG-lipid conjugate is anchored in its surface together with DSPE-PEG2000 (5 mole % in total); also called LP500
For B2, the “relative transfection (glucocorticoid responsive element-driven Firefly luciferase, corrected by Renilla luciferase) in CHO-P cells” value in assay [3] is 5 fold. The IC50 in assay [2] was found to be 0.00034 µM.
